The text below walks through data of the supplement of paper PMC12764529.

Data set [1] can be described thus: folding stability dG unfold from chymotrypsin proteolysis; higher = more stable. Put shortly:
(§1)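 Only designs with AlphaFold2 dimer inter-PAE above 15 were retained; each was a mini-protein under 80 residues with no cysteine, in a PA-tagged cDNA display construct. After digestion with trypsin and chymotrypsin and sequencing, K50 was inferred by Bayesian fitting of counts, and unfolding free energy was derived per protease or combined against a sequence-predicted unfolded-state K50 and a shared folded-state K50.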

A short description of data set [2]: folding stability dG unfold (combined trypsin and chymotrypsin); higher = more stable. In short, it runs like this: as §1
Data set [3] in a line: folding stability dG unfold from trypsin proteolysis; higher = more stable. In short, it runs like this:
as §1

± gives the half width of the 95% confidence interval.

On to “SAGNIKISYDPDDGWLTITFPVAPGQEFSFKLNIMLPENGAKIKNVEVTGPLKDGQPVTITMKVTGIKPSAG [r5_737_TrROS]”, for which the “folding stability dG unfold” value in data set [1] came out at 3.77 ± 0.064 kcal/mol; in data set [2] it was 3.27 ± 0.11 kcal/mol; in data set [3], 2.2 ± 0.13 kcal/mol.
For “SAGNIMVQVEPDPGGTVKVEIMFMIPLPNGWPIMIQIEWEVRVDEDGEPELKMPIEIFFSEEALDKGFSAGG [r19_63_TrROS]”, the “folding stability dG unfold” value in data set [1] is 1.99 ± 0.029 kcal/mol; in data set [2] it was 2.09 ± 0.13 kcal/mol; in data set [3] it was 2.06 ± 0.11 kcal/mol.
As to “SAGNSNTRYIVRIKIKKYNPETGKIEEIEIDVPISDDDLNIPVEKIIEALKKAFPNTEIEAEITKVPASAGG [r19_189_TrMRF]”, the “folding stability dG unfold” value in data set [1] is 3.88 ± 0.13 kcal/mol; in data set [2], 3.74 ± 0.17 kcal/mol; in data set [3] it was 3.77 ± 0.29 kcal/mol.
For “SAGNVTIRISFYPRKDGWFFRIKVHFDGKPRELMIPPDDSAEDLADELEKKLGADVTDIEVEWMPLEDGSAG [r5_181_TrROS]”, the “folding stability dG unfold” value came out at 4.25 ± 0.083 kcal/mol in data set [1], 3.88 ± 0.12 kcal/mol in data set [2] and 3.27 ± 0.1 kcal/mol in data set [3].
Turning to “SAGPAPGAPWEKVEIVAEAWVPTAGGKAVPVVLARAPDGSLLATFPDGTVRVVVPGAGPEVTVELPLASAGG [r19_199_TrMRF]”, the “folding stability dG unfold” value in data set [1] was found to be 2.032 ± 0.016 kcal/mol; in data set [2], 1.62 ± 0.065 kcal/mol; in data set [3], 0.115 ± 0.046 kcal/mol.
For “SAGPEKPFDIVIVEVKSMEVHEDPNGRRSVRIPVVARIPGGYYIRFEIWINPPTGNVSIDWEIVPLDDSAGG [r19_320_TrROS]”, in that order: 4.21 ± 0.12 kcal/mol, 3.82 ± 0.14 kcal/mol and 2.73 ± 0.047 kcal/mol.
The corresponding values for “SAGPEREVEVETLVIEAEDGKERLVLRLVRVDGRLYLEVRRYRDGKWEEVARFEAPEEITLSPELLKALSAG [r5_490_TrROS_Hall]” are 4.219 ± 0.039 kcal/mol, 4.16 ± 0.078 kcal/mol and 4.09 ± 0.091 kcal/mol.
For “SAGPFILVKFVTPDGRPLYYVIEIPESEEPEKLTLEQALEVAEAIAKALASKGGFEVKEVKIVSPEEFSAGG [r19_27_TrMRF]”, in that order: 3.802 ± 0.023 kcal/mol, 3.66 ± 0.057 kcal/mol and 3.43 ± 0.083 kcal/mol.
For the sequence “SAGPGAELVAEFEVELGDRGARIRIYRAPDFLIIRVDYPDGTVPVFRIDPRTGRIVEVRTFRVRPDLPLSAG [r14_676_TrMRF]”, the “folding stability dG unfold” value in data set [1] came to 1.91 ± 0.098 kcal/mol; in data set [2] it was 2.28 ± 0.11 kcal/mol; in data set [3], 2.56 ± 0.045 kcal/mol.
The corresponding values for “SAGPIKELLEFLKANPDAVVEFEFTLPNGAKVKIKAKKFPDAVVLEVTTIDPNNKKPITGTITIPLPESAGG [r19_143_TrMRF]” are 3.49 ± 0.072 kcal/mol, 3.81 ± 0.13 kcal/mol and 4.15 ± 0.13 kcal/mol.
In the case of “SAGPKMKPIPFEFRNPDNGHKVKISVYYNPNGKRKIMITNPGDGRIYTFKINPGGIEIEKEIPLDDIKFSAG [r5_619_TrROS]”, the “folding stability dG unfold” value in data set [1] is 0.857 ± 0.67 kcal/mol; in data set [2], 0.83 ± 0.36 kcal/mol; in data set [3] it was 1.13 ± 0.13 kcal/mol.
On to “SAGPKNREIKVRIQFNGNWVEYKMPDNDLKELVKNGGLQIAGVDPEKDEIMIQIPVPPPKPDPEDGKPKSAG [r5_868_TrROS]”, for which the “folding stability dG unfold” value in data set [1] is 1.23 ± 0.083 kcal/mol; in data set [2] it was 0.773 ± 0.15 kcal/mol; in data set [3] it was -0.0867 ± 0.19 kcal/mol.
The corresponding values for “SAGPKVKLIKAEFFPDGRLVVYAEVESSNGEPAFAVGVFDPRNPNKAHVKVYNPSTGKVSEFEVTVTPGSAG [r5_345_TrMRF]” are 3.24 ± 0.042 kcal/mol, 3 ± 0.035 kcal/mol and 2.57 ± 0.054 kcal/mol.
Take “SAGPLPEDVAAGKPVDVEAPIPLRRKDGDLLAVFPITGPMTVKELLEVLEAIRERARELDLPPVEDLDRSAG [r5_606_TrMRF]”: the “folding stability dG unfold” value in data set [1] was -0.268 ± 0.21 kcal/mol; in data set [2], 0.181 ± 0.065 kcal/mol; in data set [3], 0.36 ± 0.047 kcal/mol.
As to “SAGPLTVTVEGDTLTVTVPLTDVPADATVRVTVTVGDKTEEYTVPPSESITVTVPSSAVEVTVERLPPASAG [r5_867_JUSTAS]”, the “folding stability dG unfold” value is 2.44 ± 0.082 kcal/mol in data set [1], 2.36 ± 0.12 kcal/mol in data set [2] and 2.09 ± 0.085 kcal/mol in data set [3].
For “SAGPMTLEILYKRPANEPFTLEDLELAKEVEEAVAALVPSKYKVRIKSIEYEKYPDYYYIRVTIEVEKPSAG [r5_121_TrMRF]”, in that order: 4.71 ± 0.061 kcal/mol, 4.64 ± 0.083 kcal/mol and 4.57 ± 0.13 kcal/mol.
For “SAGPNLENLEIVEIKAEVLPDNSVIVPLKVRNDNGEEEEVWGRVGNGIVTLTYPNGFPAVAFIPPSAFSAGG [r19_84_TrMRF]”, the “folding stability dG unfold” value in data set [1] was 0.576 ± 0.089 kcal/mol; in data set [2] it was 0.651 ± 0.051 kcal/mol; in data set [3], 0.683 ± 0.033 kcal/mol.
With “SAGPPKKVEIPVRYPFDGWEIMIQIDPKDPKIEIHVHNPEHRERAREYARTIARIFQENGIPVEIEPWSAGG [r19_354_TrROS]”, the “folding stability dG unfold” value is 1.91 ± 0.095 kcal/mol in data set [1], 1.73 ± 0.21 kcal/mol in data set [2] and 1.48 ± 0.057 kcal/mol in data set [3].
In the case of “SAGPPVEIPITIKIRYWKPDPDGPKPVEERTIPIPVRMPPDQLDDPAFNNFIKEALDELPPGIRMIEITSAG [r5_849_TrROS]”, the “folding stability dG unfold” value is 1.28 ± 0.064 kcal/mol in data set [1], 1.07 ± 0.068 kcal/mol in data set [2] and 0.526 ± 0.042 kcal/mol in data set [3].
For “SAGPPVLALFTGSPEDVQELLDRLPPDFEVEVGRLPDLYVARFPPDVPPGTVLLPGADGRPAVVEVVEASAG [r5_123_TrMRF]”, in that order: 1.68 ± 0.037 kcal/mol, 1.14 ± 0.12 kcal/mol and 0.526 ± 0.041 kcal/mol.
For “SAGPVTIPIFYRVPPGEPMTPEAKEFAIELAKYIARLFPPGYKIEIDSIEWERHPNYYYFRVTIEIEPPSAG [r5_121_TrROS]”, in that order: 3.8 ± 0.085 kcal/mol, 3.62 ± 0.27 kcal/mol and 3.64 ± 0.16 kcal/mol.
For “SAGPVVVDPNGKLLPLKVKAVFVIDPELLEEKAKESDNSLEKAIRDLVKELEAELKAKGYDVEVEGIGSAGG [r19_305_TrMRF]”, in that order: 1.97 ± 0.049 kcal/mol, 1.68 ± 0.061 kcal/mol and 1.12 ± 0.067 kcal/mol.
On to “SAGPWMPYYVKVKFPDEEKLEKLVDEIQDESGFNMQVKKNPENGTRTVRVNMPPNIMEALKKHGFEIVSAGG [r19_306_TrROS]”, for which the results for the “folding stability dG unfold” value in data set [1], in data set [2] and in data set [3] were -0.208 ± 0.46 kcal/mol, 0.337 ± 0.34 kcal/mol and 0.415 ± 0.11 kcal/mol, respectively.
The corresponding values for “SAGPWRIKEVDPDSYTIEIRFGDRPIEIKIPPGKEPSIMIEMDPDGHFQLTIRVPDRTRTFTIPFDDIRSAG [r5_500_TrROS]” are 0.591 ± 0.25 kcal/mol, 0.674 ± 0.19 kcal/mol and 0.86 ± 0.13 kcal/mol.
As for “SAGPWWMITIRLPGNKTITIMFPGVKVEVDPKNNTIRIRNPGLGHSIEFKFDPPGKIKDVDIEPIPPNASAG [r5_342_TrROS]”, the figures for the “folding stability dG unfold” value in data set [1], in data set [2] and in data set [3] were 4.49 ± 0.13 kcal/mol, 3.95 ± 0.18 kcal/mol and 3.39 ± 0.21 kcal/mol, respectively.
For “SAGQTITFELKDPDITPEELQKKLQKRFGMKPMNIKPVEPDPDGWRFVIEFPENGGTRTFPWEEIRELISAG [r5_550_TrROS]”, in that order: 1.12 ± 0.18 kcal/mol, 1.03 ± 0.13 kcal/mol and 0.861 ± 0.11 kcal/mol.
For the sequence “SAGQWVKFTLPIYKMKYEKDKDGKPEIKEMKPIPKFDIEARVDEDGNVRIRFGGNEREFPPGESLEDLISAG [r14_909_TrROS]”, the “folding stability dG unfold” value in data set [1] stood at 0.482 ± 0.28 kcal/mol; in data set [2], 0.478 ± 0.24 kcal/mol; in data set [3] it was 0.0407 ± 0.21 kcal/mol.
